# From IntAct's records for PubMed 17215868
# B1: Vacuolar protein-sorting-associated protein 36 (Saccharomyces cerevisiae), Q06696 (parent)
# chain: MEYWHYVETTSSGQPLLREGEKDIFIDQSVGLYHGKSKILQRQRGRIFLTSQRIIYIDDAKPTQNSLGLELDDLAYVNYSSGFLTRSPRLILFFKDPSSKDELGKSAETASADVVSTWVCPICMVSNETQGEFTKDTLPTPICINCGVPADYELTKSSINCSNAIDPNANPQNQFGVNSENICPACTFANHPQIGNCEICGHRLPNASKVRSKLNRLNFHDSRVHIELEKNSLARNKSSHSALSSSSSTGSSTEFVQLSFRKSDGVLFSQATERALENILTEKNKHIFNQNVVSVNGVDMRKGASSHEYNNEVPFIETKLSRIGISSLEKSRENQLLNNDILFNNALTDLNKLMSLATSIERLYKNSNITMKTKTLNLQDESTVNEPKTRRPLLILDREKFLNKELFLDEIAREIYEFTLSEFKDLNSDTNYMIITLVDLYAMYNKSMRIGTGLISPMEMREACERFEHLGLNELKLVKVNKRILCVTSEKFDVVKEKLVDLIGDNPGSDLLRLTQILSSNNSKSNWTLGILMEVLQNCVDEGDLLIDKQLSGIYYYKNSYWPSHI
# partner: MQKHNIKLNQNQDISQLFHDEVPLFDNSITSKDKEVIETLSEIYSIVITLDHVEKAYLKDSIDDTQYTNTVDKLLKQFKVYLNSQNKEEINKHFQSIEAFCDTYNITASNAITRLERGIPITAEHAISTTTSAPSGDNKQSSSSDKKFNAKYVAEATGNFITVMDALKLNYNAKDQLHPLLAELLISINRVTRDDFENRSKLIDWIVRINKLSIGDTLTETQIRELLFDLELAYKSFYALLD
# Variants of: B1
# Settings: with vps28_yeast VPS28, Q02767
row,effect of a mutation on the interaction,Variant
1,disrupting interaction,D151R;L154R

# Variants of: B1
# Settings: with vps28_yeast VPS28, Q02767
# Remark: another data set of the same source
row,effect of a mutation on the interaction,Variant
1,disrupting interaction,I122D;V148D

# Variants of: B1
# Settings: with vps28_yeast VPS28, Q02767
# Remark: another data set of the same source
row,effect of a mutation on the interaction,Variant
1,disrupting interaction,V148D;D151R

# Variants of: B1
# Settings: with vps28_yeast VPS28, Q02767
# Remark: another data set of the same source
row,effect of a mutation on the interaction,Variant
1,disrupting interaction,I122D
